According to patent US20110008345A1 (GlaxoSmithKline, published 2011):
Substitutions are numbered along the chain they refer to. Read-outs that look alike come from different tables or passages of the source.

Key:
[1] = molecular target: recombinant E. coli-expressed human IL-18 (human, UniProt Q14116 37-193); assay: SPR
[2] = molecular target: T1, recombinant E. coli-expressed human IL-4 (human, UniProt P05112 25-153); assay: SPR
T1 construct: made and purified at GSK; also called Interleukin-4; rhIL-4
T1 sequence: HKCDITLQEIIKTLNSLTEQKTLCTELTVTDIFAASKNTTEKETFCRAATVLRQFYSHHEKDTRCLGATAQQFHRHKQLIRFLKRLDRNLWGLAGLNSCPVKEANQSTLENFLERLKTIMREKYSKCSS

[3] = molecular target: T2, recombinant E. coli-expressed human IL-13 (human, UniProt P35225 35-146); assay: SPR
T2 construct: made and purified at GSK; also called Interleukin-13; rhIL-13

[4] = molecular target: T1, recombinant E. coli-expressed human IL-4; assay: SPR, positive dissociation
[5] = molecular target: T2, recombinant E. coli-expressed human …; assay: SPR, purified
[6] = molecular target: T1, recombinant E. coli-expressed human IL-4; assay: SPR, purified
[7] = molecular target: T2, recombinant E. coli-expressed human …; assay: cell-based or functional assay
[8] = molecular target: T3, recombinant E. coli-expressed cynomolgus IL-13 (cynomolgus, UniProt Q0PW92 21-132); assay: cell-based or functional assay
[9] = molecular target: T2, recombinant E. coli-expressed human …; assay: SPR exp 2
[10] = molecular target: T1, recombinant E. coli-expressed human IL-4; assay: SPR exp 2
[11] = molecular target: T2, recombinant E. coli-expressed human …; assay: SPR exp 1
[12] = molecular target: T1, recombinant E. coli-expressed human IL-4; assay: SPR exp 1
[13] = molecular target: T2, recombinant E. coli-expressed human …; assay: ELISA, IL-13 binding to IL13Ralpha2/Fc
[14] = molecular target: T3, recombinant E. coli-expressed …; assay: SPR
[15] = molecular target: T2, recombinant E. coli-expressed human …; assay: SPR exp 2; remark: listed apart in the source
[16] = molecular target: T1, recombinant E. coli-expressed human IL-4; assay: SPR exp 2; remark: listed apart in the source
[17] = molecular target: T2, recombinant E. coli-expressed human …; assay: SPR; remark: listed apart in the source
[18] = molecular target: T2, recombinant E. coli-expressed human …; assay: SPR, no IL-4 bound
[19] = molecular target: T1, recombinant E. coli-expressed human IL-4; assay: ELISA, IL-4 binding to IL4Ralpha-Fc
[20] = molecular target: T2, recombinant E. coli-expressed human …; assay: SPR, human IL-4 bound first
[21] = molecular target: T2, recombinant E. coli-expressed human …; assay: cell-based or functional assay; remark: listed apart in the source
[22] = molecular target: T1, recombinant E. coli-expressed human IL-4; assay: cell-based or functional assay
[23] = molecular target: T2, recombinant E. coli-expressed human …; assay: cell-based or functional assay; remark: listed apart in the source
[24] = molecular target: T4, recombinant E. coli-expressed cynomolgus IL-4 (cynomolgus, UniProt P79339 25-153); assay: cell-based or functional assay
T4 sequence (looked up): T1 sequence with E26K, V29I, F33L

[25] = molecular target: T1, recombinant E. coli-expressed human IL-4; assay: cell-based or functional assay; remark: listed apart in the source
[26] = molecular target: T3, recombinant E. coli-expressed …; assay: cell-based or functional assay; remark: listed apart in the source
[27] = molecular target: T2, recombinant E. coli-expressed human …; assay: SPR exp 1; remark: listed apart in the source
[28] = molecular target: T4, recombinant E. coli-expressed …; assay: SPR
[29] = molecular target: T3, recombinant E. coli-expressed …; assay: SPR; remark: listed apart in the source
RNAse A = molecular target: T5, RNAse A (UniProt P61823 27-150); assay: ELISA
T5 sequence (looked up): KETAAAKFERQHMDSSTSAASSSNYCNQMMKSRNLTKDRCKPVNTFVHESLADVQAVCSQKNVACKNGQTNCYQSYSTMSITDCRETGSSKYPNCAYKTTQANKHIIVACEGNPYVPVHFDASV

[30] = molecular target: T1, recombinant E. coli-expressed human IL-4; assay: ELISA
HEL (Hen Egg Lysozyme) = molecular target: T6, HEL (Hen Egg Lysozyme) (hen, UniProt P00698 19-147); assay: ELISA
T6 construct: also called hen egg white lysozyme

[31] = molecular target: recombinant human TNF-alpha (human, UniProt P01375 77-233); assay: ELISA, supernatant
[32] = molecular target: T1, recombinant E. coli-expressed human IL-4; assay: ELISA, supernatant
[33] = molecular target: T2, recombinant E. coli-expressed human …; assay: ELISA
[34] = molecular target: recombinant Sf21-expressed human IL-5 (human, UniProt P05113 20-134); assay: SPR

T6 sequence (P00698 19-147): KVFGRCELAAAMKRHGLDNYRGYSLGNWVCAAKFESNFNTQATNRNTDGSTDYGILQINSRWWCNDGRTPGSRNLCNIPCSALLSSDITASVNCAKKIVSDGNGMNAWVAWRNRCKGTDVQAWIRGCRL

B1: Anti-human IL-18 (humanised) monoclonal antibody (antibody, human IgG1, kappa, V domains shown)
VH: QVQLVQSGAEVKKPGASVKVSCKVSGEISTGYYFHWVRQAPGKGLEWMGRIDPEDDSTKYAERFKDRVTMTEDTSTDTAYMELSSLRSEDTAVYYCTTWRIYRDSSGRPFYVMDAWGQGTLVTVSS
VL: DIQMTQSPSSVSASVGDRVTITCLASEDIYTYLTWYQQKPGKAPKLLIYGANKLQDGVPSRFSGSGSGTDYTLTISSLQPEDFATYYCLQGSKFPLTFGQGTKLEIKR
notes: also called Anti-human IL-18 mAb
Kd [1]: 0.035 nM

B2: 586H-TVAAPS-147 (bispecific antibody, human IgG1, kappa)
heavy: not shown
light: DIVMTQSPLSLPVTPGEPASISCRSSQNIVHINGNTYLEWYLQKPGQSPRLLIYKISDRFSGVPDRFSGSGSGTDFTLKISRVEADDVGIYYCFQGSHVPWTFGQGTKLEIKRTVAAPSVFIFPPSDEQLKSGTASVVCLLNNFYPREAKVQWKVDNALQSGNSQESVTEQDSKDSTYSLSSTLTLSKADYEKHKVYACEVTHQGLSSPVTKSFNRGEC
koff [2]: 6.69e-07 s⁻¹
kon [2]: 66200 M⁻¹ s⁻¹
Kd [3]: 0.56 nM
Kd [4]: 0.011 nM

B3: 586H-TVAAPS-154 (bispecific antibody, human IgG1, kappa)
heavy: not shown
light: B2 light
koff [2]: 1.15e-07 s⁻¹
kon [2]: 64400 M⁻¹ s⁻¹
Kd [3]: 0.56 nM
Kd [5]: 0.41 nM
Kd [6]: 0.49 nM
Kd [4]: 0.002 nM

B4: PascoH-TVAAPS-616 (bispecific antibody, human IgG1, kappa)
heavy: not shown
light: DIVLTQSPSSLSASVGDRVTITCKASQSVDYDGDSYMNWYQQKPGKAPKLLIYAASNLESGIPSRFSGSGSGTDFTFTISSLQPEDIATYYCQQSNEDPPTFGQGTKVEIKRTVAAPSVFIFPPSDEQLKSGTASVVCLLNNFYPREAKVQWKVDNALQSGNSQESVTEQDSKDSTYSLSSTLTLSKADYEKHKVYACEVTHQGLSSPVTKSFNRGEC
Mean ND50 (TF-1) [7]: 0.722 nM
Mean ND50 (TF-1) [8]: 14.5 nM
Kd [9]: 0.056 nM
Kd [10]: 0.005 nM
Kd [11]: 0.0497 nM
Kd [12]: 0.003 nM
IC50 [13]: 6.17 nM
Kd [14]: 9.8 nM
koff [14]: 0.00451 s⁻¹
kon [14]: 460000 M⁻¹ s⁻¹

B5: PascoH-474 GS removed (bispecific antibody, human IgG1, kappa)
heavy: not shown
light: B4 light
Kd [15]: 0.351 nM
Kd [16]: 0.005 nM
Kd [17]: 0.423 nM
koff [17]: 0.000266 s⁻¹
kon [17]: 629000 M⁻¹ s⁻¹
Kd [18]: 0.425 nM
koff [18]: 0.000259 s⁻¹
kon [18]: 609000 M⁻¹ s⁻¹
IC50 [19]: 5.14 nM
IC50 [13]: 9.58 nM
Kd [20]: 0.408 nM
koff [20]: 0.000231 s⁻¹
kon [20]: 566000 M⁻¹ s⁻¹
Mean IC50 (whole blood phospho-STAT6) [21]: 2.78 nM
Mean IC50 (whole blood phospho-STAT6) [22]: 7.95 nM
Mean ND50 (TF-1) [23]: 2.27 nM
Mean ND50 (TF-1) [24]: 1.89 nM
Mean ND50 (TF-1) [25]: 2.85 nM
Mean ND50 (TF-1) [26]: 39.8 nM
Kd [27]: 0.331 nM
Kd [28]: 0.0342 nM
koff [28]: 6.38e-05 s⁻¹
kon [28]: 1.87e+06 M⁻¹ s⁻¹
Kd [29]: 16.6 nM
koff [29]: 0.011 s⁻¹
kon [29]: 662000 M⁻¹ s⁻¹

B6: BPC1809 (bispecific antibody, human IgG1, kappa)
heavy: not shown
light: B4 light
notes: also called Anti IL-4 heavy Chain-GS-anti RNAse A camelidVHH
binding result (RNAse A): binds
binding result [30]: binds

B7: BPC1816 (bispecific antibody, human IgG1, kappa)
heavy: not shown
light: B4 light
notes: also called Anti IL-4 heavy Chain-GS-NARV
binding result [30]: binds
binding result (HEL (Hen Egg Lysozyme)): binds

B8: BPC1822 (bispecific antibody, human IgG1, kappa)
heavy: not shown
light: B4 light
binding result [31]: binds
binding result [32]: binds

B9: BPC1823 (bispecific antibody, human IgG1, kappa)
heavy: not shown
light: B4 light
notes: also called Anti IL-4 Heavy Chain-GS-anti TNF-a adnectin
binding result [31]: binds
binding result [32]: binds

B10: PascoH-616 (bispecific antibody, human IgG1, kappa)
heavy: not shown
light: B4 light
Mean ND50 (TF-1) [7]: 0.796 nM
Mean ND50 (TF-1) [8]: 9.23 nM
Kd [9]: 0.15 nM
Kd [11]: 0.114 nM
Kd [12]: 0.00172 nM
IC50 [13]: 6.41 nM
Kd [14]: 5.4 nM
koff [14]: 0.00184 s⁻¹
kon [14]: 341000 M⁻¹ s⁻¹

B11: PascoL-ELQLE-474 (bispecific antibody, human IgG1, kappa)
heavy: not shown
light: DIVLTQSPSSLSASVGDRVTITCKASQSVDYDGDSYMNWYQQKPGKAPKLLIYAASNLESGIPSRFSGSGSGTDFTFTISSLQPEDIATYYCQQSNEDPPTFGQGTKVEIKRTVAAPSVFIFPPSDEQLKSGTASVVCLLNNFYPREAKVQWKVDNALQSGNSQESVTEQDSKDSTYSLSSTLTLSKADYEKHKVYACEVTHQGLSSPVTKSFNRGECELQLEESCAEAQDGELDGGSGVQLLESGGGLVQPGGSLRLSCAASGFTFAWYDMGWVRQAPGKGLEWVSSIDWHGEVTYYADSVKGRFTISRDNSKNTLYLQMNSLRAEDTAVYYCATAEDEPGYDYWGQGTLVTVSS
binding result [33]: binds
binding result [30]: binds

B12: Mepolizumab (Anti-human IL-5 monoclonal antibody) (antibody, human IgG1, kappa, V domains shown)
VH: QVTLRESGPALVKPTQTLTLTCTVSGFSLTSYSVHWVRQPPGKGLEWLGVIWASGGTDYNSALMSRLSISKDTSRNQVVLTMTNMDPVDTATYYCARDPPSSLLRLDYWGRGTLVTVSS
VL: DIVMTQSPDSLAVSLGERATINCKSSQSLLNSGNQKNYLAWYQQKPGQPPKLLIYGASTRESGVPDRFSGSGSGTDFTLTISSLQAEDVAVYYCQNVHSFPFTFGGGTKLEIKR
notes: also called IL-5 mAb; anti-human IL5 mAb
binding result [33]: no binding
binding result [30]: no binding
Kd [34]: 0.34 nM
